Measurements taken from patent US20090075898A1 (YEDA RESEARCH AND DEVELOPMENT CO LTD AT THE WEIZMANN …, published 2009).
Ends that are not written are not given here. * marks the point of attachment. Biotin = O=C1N[C@H]2[C@H](CS[C@H]2CCCCC(=O)*)N1

B1: biotinylated peptide of the 1st extracellular loop of the human FcεRI β chain (peptide)
peptide: Biotin-SVLDISHIEGDIFSSFKAGY
notes: also called first extracellular loop of human FcεRI β-chain
B2: human complement component C3a (ligand)
chain: not shown
B3: biotinylated peptide of the 2nd extracellular loop of the human FcεRI β chain (peptide)
peptide: Biotin-KSLAYIHIHSCQKFFETKCFMAS
modifications: cysteine pairing not given here
notes: also called second extracellular loop of human FcεRI β-chain

Key:
[1] = target: T1, C5a (UniProt P01031 678-751); test: SPR (BIACORE 2000), peptide on streptavidin chip, C5a as analyte
T1 construct: domain: C5a; Control analyte in SPR
T1 sequence (looked up): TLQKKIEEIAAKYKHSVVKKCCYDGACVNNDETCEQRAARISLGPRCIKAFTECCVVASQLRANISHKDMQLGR

[2] = target: B2; test: SPR (BIACORE 2000), biotinylated peptide on streptavidin chip, C3a as analyte; Kd = koff/kon from kobs plots; first extracellular loop of the human protein
[3] = target: T2, multisubunit FcεRI receptor complex on rat RBL-2H3 cells and rat peritoneal mast cells (rat, UniProt P12371 24-245; P13386 1-243; P20411 19-86); test: cell-based or functional assay
T2 sequence (looked up) 1: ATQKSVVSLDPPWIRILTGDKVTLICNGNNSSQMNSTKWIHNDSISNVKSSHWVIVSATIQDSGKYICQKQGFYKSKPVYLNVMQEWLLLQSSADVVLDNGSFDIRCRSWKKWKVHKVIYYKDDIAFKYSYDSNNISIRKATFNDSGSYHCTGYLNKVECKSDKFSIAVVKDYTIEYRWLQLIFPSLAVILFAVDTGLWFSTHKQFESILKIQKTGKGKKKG
T2 sequence (looked up) 2: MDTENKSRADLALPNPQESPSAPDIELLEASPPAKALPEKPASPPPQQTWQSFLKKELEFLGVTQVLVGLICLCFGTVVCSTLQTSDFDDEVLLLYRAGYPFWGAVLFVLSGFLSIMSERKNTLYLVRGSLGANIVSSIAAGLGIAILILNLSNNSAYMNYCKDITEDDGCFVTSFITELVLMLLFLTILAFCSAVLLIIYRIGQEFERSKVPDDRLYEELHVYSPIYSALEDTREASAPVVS
T2 sequence (looked up) 3: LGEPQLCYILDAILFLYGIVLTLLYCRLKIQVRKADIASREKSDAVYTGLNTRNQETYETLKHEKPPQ

[4] = target: T3, β-chain of the high affinity IgE receptor (FcεRI) on mouse bone marrow derived mast cells (mouse, UniProt P20490 1-235); test: cell-based or functional assay
T3 sequence (looked up): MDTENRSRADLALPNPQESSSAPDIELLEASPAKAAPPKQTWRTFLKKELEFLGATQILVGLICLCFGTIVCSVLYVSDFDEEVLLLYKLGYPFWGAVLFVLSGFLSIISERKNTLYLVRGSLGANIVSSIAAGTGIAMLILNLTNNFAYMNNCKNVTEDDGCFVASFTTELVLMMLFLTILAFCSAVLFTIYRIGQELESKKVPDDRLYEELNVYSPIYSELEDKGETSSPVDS

[5] = target: B2; test: SPR (BIACORE 2000), peptide on streptavidin chip, C3a as analyte

Row | Binder | binding result [1] | Kd [2] [nM] | Inhibitory effect (IC50, µM) on the IgE-mediated degranulation of RBL-2H3 [3] [µM] | Inhibitory effect (IC50, µM) on the IgE-mediated degranulation of BMMC [4] [µM] | binding result [5]
1 | B1 | no binding | 250 |  |  | 
2 | B2 |  |  | 2.4 | 0.2 | 
3 | B3 | no binding |  |  |  | no binding
